Like-named read-outs stand apart in the source and are kept apart here. Residues, ends and D or L forms follow the SMILES beside them. No end group written: not given here. *: point of attachment. X1 = CN(C)c1ccc2c(-c3ccc(N4C(=O)CC(*)C4=O)cc3C(=O)[O-])c3ccc(=[N+](C)C)cc-3oc2c1; fluorescein‑maleimide = fluorescein attached via maleimide to Cys
T1: BsGpsB1-68 (B. subtilis, UniProt P0CI74 1-68)
T1 construct: GpsB, Bacillus subtilis, residues 1-68 (N-terminal domain); also called N-terminal domain of B. subtilis GpsB; wildtype BsGpsB1-68; source: E. coli BL21(DE3), purified (Ni-NTA, thrombin removal of the His6-tag, SEC); not shown: His6, N-terminal, cleaved
T1 sequence (looked up): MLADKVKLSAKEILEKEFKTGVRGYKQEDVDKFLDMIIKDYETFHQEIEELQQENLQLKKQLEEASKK

B1: Fluorescein-BsPBP11-32 Ala10Pro (peptide)
peptide: GSMADQFNSREPRRKANSKSSPSPKKGKKRKKC(fluorescein‑maleimide)G
notes: non-native N-terminal residues left by the recombinant method; PBP1 (ponA), Bacillus subtilis, residues 1-32; also called 31-labelled BsPBP1 1-32 A10P
B2: TAMRA-BsPBP11-32 Arg8Lys (peptide)
peptide: GSMADQFNSKEARRKANC(TAMRA‑maleimide)KSSPSPKKGKKRKKGG
notes: non-native N-terminal residues left by the recombinant method; PBP1 (ponA), Bacillus subtilis, residues 1-32; also called BsPBP1 1-32 R8K
B3: TAMRA-BsPBP11-32 Arg11Ala (peptide)
peptide: GSMADQFNSREAARKANC(TAMRA‑maleimide)KSSPSPKKGKKRKKGG
notes: non-native N-terminal residues left by the recombinant method; PBP1 (ponA), Bacillus subtilis, residues 1-32; also called BsPBP1 1-32 R11A
B4: TAMRA-BsPBP11-32 Arg28Ala (peptide)
peptide: GSMADQFNSREARRKANC(TAMRA‑maleimide)KSSPSPKKGKKAKKGG
notes: non-native N-terminal residues left by the recombinant method; PBP1 (ponA), Bacillus subtilis, residues 1-32; also called BsPBP1 1-32 R28A
B5: Fluorescein-BsPBP11-32 Arg8Ala (peptide)
peptide: GSMADQFNSAEARRKANSKSSPSPKKGKKRKKC(fluorescein‑maleimide)G
notes: non-native N-terminal residues left by the recombinant method; PBP1 (ponA), Bacillus subtilis, residues 1-32; also called 31-labelled BsPBP1 1-32 R8A
B6: Fluorescein-BsPBP11-32 wildtype (peptide)
peptide: GSMADQFNSREARRKANSKSSPSPKKGKKRKKC(fluorescein‑maleimide)G
notes: non-native N-terminal residues left by the recombinant method; PBP1 (ponA), Bacillus subtilis, residues 1-32, cytoplasmic mini-domain; also called BsPBP1 1-32 labelled with fluorescein at residue 31; 31-labelled peptide
B7: Fluorescein-BsPBP11-32 Arg28Ala (peptide)
peptide: GSMADQFNSREARRKANSKSSPSPKKGKKAKKC(fluorescein‑maleimide)G
notes: non-native N-terminal residues left by the recombinant method; PBP1 (ponA), Bacillus subtilis, residues 1-32; also called 31-labelled BsPBP1 1-32 R28A
B8: TAMRA-BsPBP11-32 Ser7Ala (peptide)
peptide: GSMADQFNAREARRKANC(TAMRA‑maleimide)KSSPSPKKGKKRKKGG
notes: non-native N-terminal residues left by the recombinant method; PBP1 (ponA), Bacillus subtilis, residues 1-32; also called BsPBP1 1-32 S7A
B9: TAMRA-BsPBP11-32 Ala10Pro (peptide)
peptide: GSMADQFNSREPRRKANC(TAMRA‑maleimide)KSSPSPKKGKKRKKGG
notes: non-native N-terminal residues left by the recombinant method; PBP1 (ponA), Bacillus subtilis, residues 1-32; also called BsPBP1 1-32 A10P
B10: TAMRA-BsPBP11-32 Arg8Ala (peptide)
peptide: GSMADQFNSAEARRKANC(TAMRA‑maleimide)KSSPSPKKGKKRKKGG
notes: non-native N-terminal residues left by the recombinant method; PBP1 (ponA), Bacillus subtilis, residues 1-32; also called BsPBP1 1-32 R8A

Experiments:
BsGpsB1-68 [1] = molecular target: T2, BsGpsB1-68 (Bacillus subtilis, UniProt P0CI74); format: binding; settings: FP; for reduction in affinity for BsGpsB1-68: relative to wild-type peptide
T2 construct: His6 (N, cleaved yes); made in house; host or cells: E. coli BL21(DE3)
Description: 75 the BsGpsB5-64:BsPBP11-17 complex.

[2] = Circular dichroism of PBP peptides (helicity); format: physicochemical
Method: CD spectra were recorded on a JASCO J-810 spectropolarimeter with a PTC-4235 Peltier temperature controller using 1 mm path length quartz cuvettes. For full wavelength scans a scan speed of 10 nm^−1min^−1 and a response time of 4 s were used, the final spectra were the average of at least four measurements. BsPBP1_1-32 CD spectra were recorded at 4 °C in a buffer of 20 mM sodium phosphate, pH 7.3 at a peptide concentration of 25 μM. Peptide helical contents were estimated from molar ellipticities at 222 nm using the equation helix = [θ]222 nm / (39,500(1–2.57/n))[78] where n is the number of residues in the peptide. LmPBPA1_1-15 CD spectra were analysed at 40 μM in 20 mM sodium phosphate buffer, pH 7.8, for samples containing 0, 40 and 60% trifluoroethanol (TFE). For samples containing 80% TFE, 5 mM sodium phosphate buffer, pH 7.8, was used. The CD spectra of BsGpsB1-68 proteins were measured at a concentration of 4.5 μM in a buffer of 20 mM sodium phosphate (pH 7.8) 150 mM NaCl. For thermal melt experiments, a response time of 8 s and scan rate of 1 °C^−1min^−1 were used. All thermal melts were reversible as CD spectra recorded before and after the melts in the wavelength range 200–240 nm could be superimposed.

BsGpsB1-68 [3] = molecular target: T1, BsGpsB1-68; assay: fluorescence polarisation; GpsB protein titrated into TAMRA- or fluorescein-labelled peptide; 10 mM Tris.HCl pH 8.0, 250 mM NaCl, 0.1% reduced Triton X-100; all data fitted to a 1:1 interaction model, Kd ± standard error; settings: both partners purified

Molecule | Kd (BsGpsB1-68 [3]) [µM] | other results
CSCC[C@H](NC(=O)[C@H](CO)NC(=O)CN)C(=O)N[C@@H](C)C(=O)N[C@@H](CC(=O)O)C(=O)N[C@@H](CCC(N)=O)C(=O)N[C@@H](Cc1ccccc1)C(=O)N[C@@H](CC(N)=O)C(=O)N[C@@H](CO)C(=O)N[C@@H](C)C(=O)N[C@@H](CCC(=O)O)C(=O)N[C@@H](C)C(=O)N[C@@H](CCCNC(=N)N)C(=O)N[C@@H](CCCNC(=N)N)C(=O)N[C@@H](CCCCN)C(=O)N[C@@H](C)C(=O)N[C@@H](CC(N)=O)C(=O)N[C@@H](CSC1CC(=O)N(c2ccc(-c3c4ccc(=[N+](C)C)cc-4oc4cc(N(C)C)ccc34)c(C(=O)[O-])c2)C1=O)C(=O)N[C@@H](CCCCN)C(=O)N[C@@H](CO)C(=O)N[C@@H](CO)C(=O)N1CCC[C@H]1C(=O)N[C@@H](CO)C(=O)N1CCC[C@H]1C(=O)N[C@@H](CCCCN)C(=O)N[C@@H](CCCCN)C(=O)NCC(=O)N[C@@H](CCCCN)C(=O)N[C@@H](CCCCN)C(=O)N[C@@H](CCCNC(=N)N)C(=O)N[C@@H](CCCCN)C(=O)N[C@@H](CCCCN)C(=O)NCC(=O)NCC(=O)O (stereo partly shown) [TAMRA-BsPBP11-32 Arg8Ala] (H-GSMADQFNSAEARRKANC(X1)KSSPSPKKGKKRKKGG-OH) | – | reduction in affinity for BsGpsB1-68 (BsGpsB1-68 [1]): at least 5 fold
CSCC[C@H](NC(=O)[C@H](CO)NC(=O)CN)C(=O)N[C@@H](C)C(=O)N[C@@H](CC(=O)O)C(=O)N[C@@H](CCC(N)=O)C(=O)N[C@@H](Cc1ccccc1)C(=O)N[C@@H](CC(N)=O)C(=O)N[C@@H](CO)C(=O)N[C@@H](CCCNC(=N)N)C(=O)N[C@@H](CCC(=O)O)C(=O)N1CCC[C@H]1C(=O)N[C@@H](CCCNC(=N)N)C(=O)N[C@@H](CCCNC(=N)N)C(=O)N[C@@H](CCCCN)C(=O)N[C@@H](C)C(=O)N[C@@H](CC(N)=O)C(=O)N[C@@H](CSC1CC(=O)N(c2ccc(-c3c4ccc(=[N+](C)C)cc-4oc4cc(N(C)C)ccc34)c(C(=O)[O-])c2)C1=O)C(=O)N[C@@H](CCCCN)C(=O)N[C@@H](CO)C(=O)N[C@@H](CO)C(=O)N1CCC[C@H]1C(=O)N[C@@H](CO)C(=O)N1CCC[C@H]1C(=O)N[C@@H](CCCCN)C(=O)N[C@@H](CCCCN)C(=O)NCC(=O)N[C@@H](CCCCN)C(=O)N[C@@H](CCCCN)C(=O)N[C@@H](CCCNC(=N)N)C(=O)N[C@@H](CCCCN)C(=O)N[C@@H](CCCCN)C(=O)NCC(=O)NCC(=O)O (stereo partly shown) [TAMRA-BsPBP11-32 Ala10Pro] (H-GSMADQFNSREPRRKANC(X1)KSSPSPKKGKKRKKGG-OH) | – | reduction in affinity for BsGpsB1-68 (BsGpsB1-68 [1]; listed as BsPBP1_1-32^Ala10Pro): at least 6 fold; reduction in affinity for BsGpsB1-68 (BsGpsB1-68 [1]; listed as BsPBP11-32Ala10Pro): > 8 fold; helical residues corresponding to helical content ([2]; CD, 222 nm, 4 °C, 20 mM sodium phosphate pH 7.3, 25 μM peptide): one; α-helical content ([2]; CD, 222 nm, 4 °C, 20 mM sodium phosphate pH 7.3, 25 μM peptide, average of at least four measurements): 2%; secondary structure by CD (in words) ([2]; LmPBPA1 peptides 40 μM, 20 mM sodium phosphate pH 7.8, TFE 0-80% (5 mM phosphate at 80%), BsPBP1_1-32 peptides 25 μM, pH 7.3, 4 °C): mostly random coil
CSCC[C@H](NC(=O)[C@H](CO)NC(=O)CN)C(=O)N[C@@H](C)C(=O)N[C@@H](CC(=O)O)C(=O)N[C@@H](CCC(N)=O)C(=O)N[C@@H](Cc1ccccc1)C(=O)N[C@@H](CC(N)=O)C(=O)N[C@@H](CO)C(=O)N[C@@H](CCCNC(=N)N)C(=O)N[C@@H](CCC(=O)O)C(=O)N[C@@H](C)C(=O)N[C@@H](C)C(=O)N[C@@H](CCCNC(=N)N)C(=O)N[C@@H](CCCCN)C(=O)N[C@@H](C)C(=O)N[C@@H](CC(N)=O)C(=O)N[C@@H](CSC1CC(=O)N(c2ccc(-c3c4ccc(=[N+](C)C)cc-4oc4cc(N(C)C)ccc34)c(C(=O)[O-])c2)C1=O)C(=O)N[C@@H](CCCCN)C(=O)N[C@@H](CO)C(=O)N[C@@H](CO)C(=O)N1CCC[C@H]1C(=O)N[C@@H](CO)C(=O)N1CCC[C@H]1C(=O)N[C@@H](CCCCN)C(=O)N[C@@H](CCCCN)C(=O)NCC(=O)N[C@@H](CCCCN)C(=O)N[C@@H](CCCCN)C(=O)N[C@@H](CCCNC(=N)N)C(=O)N[C@@H](CCCCN)C(=O)N[C@@H](CCCCN)C(=O)NCC(=O)NCC(=O)O (stereo partly shown) [TAMRA-BsPBP11-32 Arg11Ala] (H-GSMADQFNSREAARKANC(X1)KSSPSPKKGKKRKKGG-OH) | – | reduction in affinity for BsGpsB1-68 (BsGpsB1-68 [1]): at least 5 fold
CSCC[C@H](NC(=O)[C@H](CO)NC(=O)CN)C(=O)N[C@@H](C)C(=O)N[C@@H](CC(=O)O)C(=O)N[C@@H](CCC(N)=O)C(=O)N[C@@H](Cc1ccccc1)C(=O)N[C@@H](CC(N)=O)C(=O)N[C@@H](CO)C(=O)N[C@@H](CCCNC(=N)N)C(=O)N[C@@H](CCC(=O)O)C(=O)N[C@@H](C)C(=O)N[C@@H](CCCNC(=N)N)C(=O)N[C@@H](CCCNC(=N)N)C(=O)N[C@@H](CCCCN)C(=O)N[C@@H](C)C(=O)N[C@@H](CC(N)=O)C(=O)N[C@@H](CSC1CC(=O)N(c2ccc(-c3c4ccc(=[N+](C)C)cc-4oc4cc(N(C)C)ccc34)c(C(=O)[O-])c2)C1=O)C(=O)N[C@@H](CCCCN)C(=O)N[C@@H](CO)C(=O)N[C@@H](CO)C(=O)N1CCC[C@H]1C(=O)N[C@@H](CO)C(=O)N1CCC[C@H]1C(=O)N[C@@H](CCCCN)C(=O)N[C@@H](CCCCN)C(=O)NCC(=O)N[C@@H](CCCCN)C(=O)N[C@@H](CCCCN)C(=O)N[C@@H](C)C(=O)N[C@@H](CCCCN)C(=O)N[C@@H](CCCCN)C(=O)NCC(=O)NCC(=O)O (stereo partly shown) [TAMRA-BsPBP11-32 Arg28Ala] (H-GSMADQFNSREARRKANC(X1)KSSPSPKKGKKAKKGG-OH) | – | binding to BsGpsB1-68 (in words) (BsGpsB1-68 [1]): no effect on binding
CSCC[C@H](NC(=O)[C@H](CO)NC(=O)CN)C(=O)N[C@@H](C)C(=O)N[C@@H](CC(=O)O)C(=O)N[C@@H](CCC(N)=O)C(=O)N[C@@H](Cc1ccccc1)C(=O)N[C@@H](CC(N)=O)C(=O)N[C@@H](CO)C(=O)N[C@@H](CCCCN)C(=O)N[C@@H](CCC(=O)O)C(=O)N[C@@H](C)C(=O)N[C@@H](CCCNC(=N)N)C(=O)N[C@@H](CCCNC(=N)N)C(=O)N[C@@H](CCCCN)C(=O)N[C@@H](C)C(=O)N[C@@H](CC(N)=O)C(=O)N[C@@H](CSC1CC(=O)N(c2ccc(-c3c4ccc(=[N+](C)C)cc-4oc4cc(N(C)C)ccc34)c(C(=O)[O-])c2)C1=O)C(=O)N[C@@H](CCCCN)C(=O)N[C@@H](CO)C(=O)N[C@@H](CO)C(=O)N1CCC[C@H]1C(=O)N[C@@H](CO)C(=O)N1CCC[C@H]1C(=O)N[C@@H](CCCCN)C(=O)N[C@@H](CCCCN)C(=O)NCC(=O)N[C@@H](CCCCN)C(=O)N[C@@H](CCCCN)C(=O)N[C@@H](CCCNC(=N)N)C(=O)N[C@@H](CCCCN)C(=O)N[C@@H](CCCCN)C(=O)NCC(=O)NCC(=O)O (stereo partly shown) [TAMRA-BsPBP11-32 Arg8Lys] (H-GSMADQFNSKEARRKANC(X1)KSSPSPKKGKKRKKGG-OH) | – | reduction in affinity for BsGpsB1-68 (BsGpsB1-68 [1]): at least 5 fold
B1 | > 500 | –
B2 | > 2000 | –
B3 | > 600 | –
B4 | 90 | –
B5 | > 500 | –
B6 | 100 | –
B7 | 130 | –
B8 | > 700 | –
B9 | > 1000 | –
B10 | > 1700 | –

Reference: PMC6335420, “The cell cycle regulator GpsB functions as cytosolic adaptor for multiple cell wall enzymes” (Nature Communications, 2019)
